Paper PMC4927390

Target: PpsR2-mVenus-CAAX (membrane-bound) (Rhodopseudomonas palustris)
Assay: translocation assay

BphP1-mCherry, transiently expressed in HeLa cells (natural protein)
decrease of mCherry fluorescence in cytoplasm after 3 min of 740 nm illumination: 25%
